Test results: the DeepSol protein solubility set

Assay: soluble on expression in E. coli; label from the status in PepcDB or PDB records

Sequence | soluble on expression in E. coli
MDAIMMEHRNDFWVFGYGSLMWRPGFAHVETVRARLHGYRRSLCIYSHVHRGTPDHPGLVLGLDTGGSCLGIAFRVPGDMTDEVMTYLREREMANKVYHEKKLHLRLADGRIVEAVAYVADRRHRQYAGRMTSEKAAAIIASAQGESGANIDYVTNTLMHLRNMRVRDHALEHINELVLAAASRQANNAALEHHHHHH | soluble
MGSDKIHHHHHHMKEHEVVGIDRTPCSTADVVGDIRDTALLAEALEGVEVIIHTAALHAPHVGLVPGDEFEEINIKATEQLALMGVKKGIKHFVFTSTTALYGFASTPAGRAGWVDETVMPRPKTIYHHSKIKAEQLLENISSSFDLPVTVLQMSRCFPEPVNLMAVYRLTRGIDARDVARAHACAVERRLSGFRRYIISGKTPFSKACCERLYRDANDVIREAIPGLAESFAVRGWSMPQSLDRVYDSSLAQHELGWQPKYGYESVLSLLDNESAEVLPMKSQS | not soluble
MVIILRHVRVFNGVNECDIYLIGTAHVSKDSIEEVEKIISSVSPEGIAVELDDRRFFSLITNEEKKVDLKKVLKEGNFLKFFIYLILANSQKKIGESFGIKPGSEMKKAIEIASKYGLPIYLIDRDIDITLSRLMDRMTFKEKMKIFWELLNSDEEDLELDDDLLNDMVKNPEKFIKLLKEISPTIYEVLVDERDRFMAKRLFELSKNKNSLVAVVGAGHVEGIVRYLKKLENGNDIDLMELIKVKKRK | not soluble
MAADLSAYPDRESELTHALAAMRSRLAAAAEAAGRNVGEIELLPITKFFPATDVAILFRLGCRSVGESREQEASAKMAELNRLLAAAELGHSGGVHWHMVGRIQRNKAGSLARWAHTAHSVDSSRLVTALDRAVVAALAEHRRGERLRVYVQVSLDGDGSRGGVDSTTPGAVDRICAQVQESEGLELVGLMGIPPLDWDPDEAFDRLQSEHNRVRAMFPHAIGLSAGMSNDLEVAVKHGSTCVRVGTALLGPRRLRSP | not soluble
MGSDKIHHHHHHMVDADQLRQWGRKVIDTERNALDNLYQYVDSSEFAKACQLILACTGKVIVMGMGKSGHIGNKISATLASTGTPAFFVHPGEASHGDLGVLSENDIVLAISNSGEASEILTLMPVIKRMGLPVIAVTGKPESNMAKHSVVHLCIEVPEEACPLGLAPTSSTTATLVMGDALAVALLQARGFTKDDFALSHPGGSLGRKLLLKVSDVMHKGDDLPLVAEDICITEALYEISKKGLGMTGVVNSQGMLVGIFTDGDLRRVIDAEINLRKTSISEVMTHGCVTVSEGILAAQALKVMDEKEINGLIVTDEQQKPIGALNMLDMVKAGVI | not soluble
MQQSYNPQNSLTATTSYSEQEIVCICESLFNEGLQTGRTEQLANFIYNLPQCYQVMESVLKAQALVYFTTQNWKMLYKLLECSKFSPHNHTVLQNLWLDAHYKEAAKTKDRELGAVCKYRIRKKNPFPNTIWDGEETNYCFKSKSRNVLRDAYKKCQYPSVEDKRRLAQQTELSIIQVSNWFKNKRQRERAAGQLDRSSARSNDSDDGSSGCESKPPMNIDSPAPPPLPTSFDLQPYYPSPYTFAPHCDFSYIQNL | not soluble
GAKQLSTARKFKMITGKDLFQQQKAMDTELKKEDGEITDLMEFVQYGLYLALFQDNIVKAKSDFSDFRSSFEFDTDGKGLKELVELWQKEI | soluble
MHYDAIVVGGGMVGAAAALGLAQRGFQVAVIEQEMPTPFDATSPPDLRISAIGYASVALLKELDAWPRVQQMRSAPYRRLETWEWANARVVFDAADIHLPELGFMVENRVLQLALWESLQEEERCRCYCPATPQGLQRTDDGWCLQLADGQKLTASLVIGADGANSQVRQWAGIGISGWQYRQSCMLIGVETSQPQQDVTWQQFTPSGPRAFLPLFDQWGSLVWYDSPQRIRQLQAMPLAQLDKEIAAAFPERLGTVKVISAGSFPLVRRHAQTYIKPGLVLLGDAAHTINPLAGQGVNLGYRDVEALLDVLINARNAGEQWASERVLRRYQCRRMPDNLMMQSGMDLFYSAFSNALPPLSFARNMALMVAQRAGVLKQRALKYAIGVLEHHHHHH | soluble
MQMNHPIYIASDHTGLELKSLVIKHLEQQKLQVIDLGPTELDPLDDYPDYAFLLAQTMQANPNSLGILICGTGVGVCMAANKAKGILAALVVDSKTAALARQHDDANVLCLSSRFVVPEENIKIVDEFLQAQFEGGRHSKRVGKIIAYEREK | soluble
MGDEFRPSHEERSKMYKSNVRDQNEMRRKRREDEVQIRKNRRDEKFERNRQITVQRSLSHEETSELLKSVADGLQSMQETTIHEALTVLHENLNNTVWTIHVLVKVQILHKLSDVYCNRVISQTTRLLISRTLLKISGIDEVKYERYSSDDRCIQSLVFNISTYGSSEDILCDTFQSIACFIIRSITYRNLALDCAIVSELIDASTINMSIILHRSLMWLVFLFCEKLDRCSPHVDEIAPLLEIISNGIQSTDAMVQTDAASSCASLAEWPPIYHYMSDLKLCSKLVANLRNDKGNARPKVKAGINSIIQATGYFTEEMIDAGLLEVLKGFVNVSYMSQEVCFIISNICVEGEQTIDKLISSGVLREVARVMEASEYRSRREAAFVICHCCASANQKHLEYVVELGMLSAFTDLLTCMDVSLVSYILDAIYLLLQFGEMRLLPDNSNPVAIKLEEIGCREKLEFLCESQSVDIHARAYTIIDRFYVDDDAPLNDDPFAGYQRNNIDDTIEKMIREPIMDQPFSF | not soluble
MANSGEEKLKLYSYWRSSCAHRVRIALALKGLDYEYIPVNLLKGDQFDSDFKKINPMGTVPALVDGDVVINDSFAIIMYLDEKYPEPPLLPRDLHKRAVNYQAMSIVLSGIQPHQNLAVIRYIEEKINVEEKTAWVNNAITKGFTALEKLLVNCAGKHATGDEIYLADLFLAPQIHGAINRFQINMEPYPTLAKCYESYNELPAFQNALPEKQPDAPSSTI | soluble
MTDVRHCPAVLIAAPASGQGKTTVTAALARLHRNRGRKVRVFKCGPDFLDPMILERASGAAVYQLDMWMVGEQESRRLLWEAAGEADLILIEGVMGLFDGTPSSADLARHFGVPVLGVIDGTAMAQTFGALALGLARYQPDLPFAGVLANRVGTLRHAQLLEGSLTEGLRWYGALSRETDIELPSRHLGLVQASELNDLDLRLDAAAEALASSCQVELPPAVSFAAPTPVACAPLLKGVRIAVARDEAFAFTYGASLDLLRAMGAQLSFFSPIHDTQLPDADSLYLPGGYPELHHQALARNSSMLQAIRAHHAAGKPLLAECGGMLYLLDSLTDVEGQRAELLGLLPGDAVMQKRLAALALQAVDLPEGSLRGHTYHHSLTSTELLPIARGLSPNGGRGAEAVYRQGRMTASYVHFYFPSNPAAVAALFAPGAPVEPVLAEGVAGELEHHHHHH | not soluble
MGSDKIHHHHHHMLARDKSNLKIEEIRMHKHHEIHRVKPLMPALCRIRQGKKVINWETHSLTVDNNQIILFPCGYEFYIVNYPEAGLYLAEMLYYPIDLIEKFQKFYAITDQIRNTTGFCLPQNPELIYCWEQLKTSISRGFSTQIQEHLAMGVLLSLGAHHVNCLLLSDSKQSLISRCYNLMLSEPRTKWTANKVARYLYISVSTLHRRLASEGISFQSILDDVRLNNALSCYTNDSKTHQRDCQGKWLQVSFSFY | not soluble
GLGFETMRDGIKVAAKETLLTPRFYTTDFDEMEQLFSKEINPNLDMEELNACLNEFRNDYNKVHFVRNETFKAAADKVTGETRRIFIEFLERSCTAEFSGFLLYKELARRMKASSPEVAEMFLLMSRDEARHAGFLNKALSDFNLALDLGFLTKNRTYTYFKPKFIIYATFLSEKIGYWRYITIYRHLQRNPDNQFYPLFEYFENWCQDENRHGDFLAACLKAKPELLNTFEAKLWSKFFCLSVYITMYLNDHQRTKFYESLGLNTRQFNQHVIIETNRATERLFPVVPDVEDPRFFEILNKMVDVNAKLVELSASSSPLAGLQKLPLLERMASYCLQLLFFKEKDVGSVDIAGSGASRNLAY | not soluble
MSLSPIAPYEIGYVHIDSCELCHADGKLVMFLAIDRVSKFTYVDFHDCAGKMEGAAFLRNVVEAFPYQIHIVLTDNGMAFADLPKNRNGPSRRFFGPHIFDRVCIEHGIEHRLTKPYHPWTNGQAERMNRTIKDATIKAYHYDDLESLKAHVLAFVTAYNFAKHLKALRWRTPYQAICDARTKDPSIFKIDPHHLTQGPHTLSEGHHHHHH | not soluble
